Assays:
[1] = biological target: T1, transferrin receptor protein 1 (Homo sapiens, UniProt P02786); experiment: Immunoprecipitation-mass spectrometry antigen identification; assay type: binding; details: HT-1080 cell lysate, IP-MS
T1 construct: endogenous in cells; host or cells: HT-1080
Method: HT-1080 cells were seeded in DMEM (Corning 10-013-CM) and 10% Hi-FBS with 1% penicillin and streptomycin (PS) with 1% MEM Non-Essential Amino Acids Solution (100×) (Thermo Fisher Scientific 11140-076) 16 h prior to use. DMSO or 1 μM of RSL3 was added and incubated for 4 h. Following treatment, the medium was aspirated from each dish and cells were washed twice with PBS. Cells were lysed with 70 μl lysis buffer (RIPA buffer from ThermoFisher, cat. 89900, 1 mM EDTA, 1 mM PMSF, 1× Halt™ protease inhibitor cocktail from ThermoFisher, cat. 78430 and 1× Halt™ phosphatase inhibitor cocktail from ThermoFisher, cat. 78426). Unlysed cells and debris were pelleted for 15 min at 16,000×g at 4° C. The samples were incubated with 10 μg of 3F3 FMA overnight at 4° C. with shaking. The next day, Thermo Scientific Pierce Protein AG Magnetic Beads (Thermo Fisher Scientific 88802) were washed with TBS with 0.05% Tween 20 (wash buffer) and then were incubated with sample/antibody mixture for 1 h with mixing. The beads were collected with a magnetic stand and then washed with wash buffer for three times. The beads were used for mass spectrometry.
Trypsin digestion was performed overnight at 37° C. […] CID fragmentation was applied with 35% collision energy and resulting fragments were detected using the rapid scan rate in the ion trap. […]
Raw mass spectrometric data were analyzed using MaxQuant v. […]

[2] = test system: SK-LMS-1 cells; experiment: Immunofluorescence in SK-LMS-1 cells; assay type: cell-based, human; details: 1 μM RSL3, 4 h

T1 sequence (P02786 whole entry): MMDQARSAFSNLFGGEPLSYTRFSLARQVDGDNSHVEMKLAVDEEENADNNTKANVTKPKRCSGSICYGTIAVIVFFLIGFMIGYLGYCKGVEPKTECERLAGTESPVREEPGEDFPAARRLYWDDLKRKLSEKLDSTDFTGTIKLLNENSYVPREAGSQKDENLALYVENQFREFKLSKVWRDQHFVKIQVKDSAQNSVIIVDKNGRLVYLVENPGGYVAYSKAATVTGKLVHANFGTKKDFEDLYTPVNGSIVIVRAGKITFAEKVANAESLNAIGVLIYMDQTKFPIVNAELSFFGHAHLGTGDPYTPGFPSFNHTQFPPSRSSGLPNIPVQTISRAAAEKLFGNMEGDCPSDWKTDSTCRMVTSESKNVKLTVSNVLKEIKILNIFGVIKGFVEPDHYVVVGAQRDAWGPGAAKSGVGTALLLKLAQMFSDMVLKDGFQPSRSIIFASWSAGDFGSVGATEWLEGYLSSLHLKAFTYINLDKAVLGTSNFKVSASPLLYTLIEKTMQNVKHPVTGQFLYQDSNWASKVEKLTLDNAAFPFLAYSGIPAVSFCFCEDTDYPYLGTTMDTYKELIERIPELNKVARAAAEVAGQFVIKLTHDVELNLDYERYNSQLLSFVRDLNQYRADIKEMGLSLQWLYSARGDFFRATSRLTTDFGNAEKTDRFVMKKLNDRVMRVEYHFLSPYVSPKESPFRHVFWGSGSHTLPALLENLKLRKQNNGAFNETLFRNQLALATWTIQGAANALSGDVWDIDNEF

B1: 3F3-FMA: Murine monoclonal IgG1 raised against ferroptotic membrane fractions; antigen is transferrin receptor protein 1 (TfR1) (antibody, V domains shown)
VH: EVLLQQSGTELVRPGALVKLSCKASGFNIQDLYIHWVKQRPEQGLEWIGWIDPETDNTIYDPKFQGKASITADTSSNTAYLQLSSLTSEDTAMYYCSTGLLQWYFDVWGAGTAVTVSS
VL: DIVMTQSPSSLAMSIGQKVTMRCKSSQSLLNSYNQKNCLAWYQQKPGQSPKLLLYFVSTRESGVPDRFIGSGSGTDFTLTISSVQAEDLADYFCQQHYSTPLTFGAGTKLELK
In the case of B1, the “amino acid coverage of TfR1” value [1] is reported as 53%, the “confidence of identification of transferrin receptor protein 1 as target antigen” value [1] is reported as 63% and the “3F3-FMA staining upon ferroptosis induction” value [2] is reported as “concentrated at the cell boundaries and became brighter”.

— patent US20230140200A1, “COMPOSITIONS AND METHODS FOR DETECTING CELLS UNDERGOING FERROPTOSIS USING AN ANTIBODY” (THE TRUSTEES OF COLUMBIA UNIVERSITY IN THE CITY OF NEW YORK, priority 2020, published 2023)
